Experimental data taken from patent publication US20250263440A1, “CD38-BINDING AGENTS AND USES THEREOF” (PeptiDream Inc., priority 2019, published 2025).
Read-outs that look alike come from different tables or passages of the source. Positions of bridges follow the written chain, without caps; N, C: chain ends. Non-standard residues stand in square brackets, D forms with d. No end group written: not given here. Bip = N[C@@H](Cc1ccc(-c2ccccc2)cc1)C(=O)O; Ahp(2) = CCCCC[C@H](N)C(=O)O

B1: Compound I-2 (SEQ ID NO. 2) (peptide)
peptide: ALHXVLPXVWVC
modifications: not fully specified; MePhe (N-methyl-L-phenylalanine) at 4; Bph at 8; cyclic peptide (N-terminal ClAc-Ala cyclised with the C-terminal Cys), structure given as a drawing
notes: Printed as Ala Leu His MePhe Val Leu Pro Bph Val Trp Val Cys
B2: Compound I-1 (SEQ ID NO. 1) (peptide)
peptide: {CH2CO}-AR[Ahp(2)]YHDGVL[Bip][Ahp(2)]DC
modifications: thioether N-13
notes: Ala Arg Ahp Tyr His Asp Gly Val Leu Bph Ahp Asp Cys

Legend:
[1] = target: T1, Recombinant human CD38 protein (R&D Systems) (human, UniProt P28907 43-300); test: SPR (Biacore T200), single-cycle kinetics, CD38 immobilised on CM3 chip, 1:1 Binding model, 25 °C; figure legend names I-2 and the panel matches Table 4 (3.5*10^-8, rounded there)
Method: (§1) One of many useful technology for assessing CD38 binding is surface plasmon resonance (SPR). […] After the equilibration of Series S Sensor Chip CM3 (produced by cytiva: Former GE Healthcare) with Running Buffer (HBS-EP with 1% (v/v) DMSO), an EDC/NHS mixture was injected at a flow rate of […] for 4 minutes to thereby activate the functional groups on sensor chip. CD38 in 10 mM Acetate (pH5.5) was injected immobilized to at a flow rate of 5 L/min. For 4 minutes to immobilize the CD38 on the substrate surfaces of the sensor chip. Then Ethanolamine was injected at a flow rate of […] for 4 minutes. 1.0 M Ethanolamine (aq.) was injected at a flow rate of […] for 420 seconds for capping. 10 mM Peptides in DMSO were diluted to obtain 10 uM with Running Buffer, and prepared 100 nM, 50 nM, 25 nM, 10 nM, 5 nM of each peptide solutions (Peptide Samples).
(§2) Using these Peptide Samples, kinetics of peptides against CD38 was measured. The method adopted for sample measurement was a single-cycle kinetics method. The analysis was conducted using the evaluation software provided with Biacore T200. A DMSO correction curve obtained by solvent correction measurements was applied for the analysis. […]
(§3) KD values were calculated based on the association rate constant (ka) and dissociation rate constant (kd).

[2] = target: T1, Recombinant human CD38 protein (R&D …); test: SPR (Biacore T200), single-cycle kinetics, CD38 immobilised on CM3 chip, 1:1 Binding model, 25 °C; figure legend names I-2 and the panel matches Table 4 (3.6*10^5, rounded there)
Method: as §1, §2, §3

[3] = target: T1, Recombinant human CD38 protein (R&D …); test: SPR (Biacore T200), single-cycle kinetics, CD38 immobilised on CM3 chip, 1:1 Binding model, 25 °C; figure legend names I-2 and the panel matches Table 4 (1.3*10^-2, rounded there)
Method: as §1, §2, §3

[4] = target: T1, Recombinant human CD38 protein (R&D …); test: ELISA
[5] = target: T1, Recombinant human CD38 protein (R&D …); test: SPR (Biacore T200), CD38 immobilised on CM3 chip, single-cycle kinetics
Method: as §1, §2, §3

[6] = target: T1, Recombinant human CD38 protein (R&D …); test: SPR (Biacore T200), single-cycle kinetics, CD38 immobilised on CM3 chip, 1:1 Binding model, 25 °C; figure legend names I-1 and the panel matches Table 4 (7.7*10^5, rounded there)
Method: as §1, §2, §3

[7] = target: T1, Recombinant human CD38 protein (R&D …); test: ELISA; remark: listed apart in the source
[8] = target: T1, Recombinant human CD38 protein (R&D …); test: SPR (Biacore T200), single-cycle kinetics, CD38 immobilised on CM3 chip, 1:1 Binding model, 25 °C; figure legend names I-1 and the panel matches Table 4 (2.3*10^-9, rounded there)
Method: as §1, §2, §3

[9] = target: T1, Recombinant human CD38 protein (R&D …); test: SPR (Biacore T200), single-cycle kinetics, CD38 immobilised on CM3 chip, 1:1 Binding model, 25 °C; figure legend names I-1; Table 4 prints 1.8*10^-3 for this constant
Method: as §1, §2, §3

Binder	Kd [1] [nM]	kon [2] [M⁻¹ s⁻¹]	koff [3] [s⁻¹]	Binding Assay (larger values indicate stronger binding) [4]	Kd [5] [nM]	kon [6] [M⁻¹ s⁻¹]	Binding Assay (larger values indicate stronger binding) [7]	Kd [8] [nM]	koff [9] [s⁻¹]
B1	35.4	358000	0.0127	1.69	35				
B2					2.3	769000	1.97	2.27	0.00175
